{"source": "the RNAGym collection of RNA variant scans (doi:10.7554/elife.90254)", "parents": {"B1": {"name": "OR4K15 (parent)", "chain": "GUUAACGGUCAUAGGCCAUGGAAACUAGGAGCACCAUUUCGCUGCCAGUGAAGAAAUGAACAAAGAAAAUCUGGGCCAGGCAGGCAUCAAAAGAAAUAGUCUUGCGCUCAACCAGAAAGUCUGUAAUCAUUUUAAGGGUA"}}, "data": [{"variants_of": "B1", "experiment": "self-cleavage, relative activity (ratio to wild type); higher = more cleavage; in vitro, sequencing; the parent is a self-cleaving ribozyme", "values": [{"variant": "U9A A64G", "self-cleavage": 1.1}, {"variant": "G8C U43C", "self-cleavage": 2.42}, {"variant": "C6U A64G", "self-cleavage": 1.46}, {"variant": "A5G A54G", "self-cleavage": 1.04}, {"variant": "A5G A54U", "self-cleavage": 0.83}, {"variant": "A5G U132C", "self-cleavage": 0.89}, {"variant": "A5G U132A", "self-cleavage": 0.6}, {"variant": "A5U U97C", "self-cleavage": 0}, {"variant": "C6U A110G", "self-cleavage": 0.19}, {"variant": "A5U A126U", "self-cleavage": 0}, {"variant": "G8A C32U", "self-cleavage": 2.12}, {"variant": "A5G A86G", "self-cleavage": 0.63}, {"variant": "A5G A86U", "self-cleavage": 1.27}, {"variant": "U9A C88U", "self-cleavage": 0.82}, {"variant": "G7A A59G", "self-cleavage": 1.46}, {"variant": "G7A U70A", "self-cleavage": 1.94}, {"variant": "G8C A64G", "self-cleavage": 2.95}, {"variant": "G7A A111G", "self-cleavage": 0.03}, {"variant": "G8C U122C", "self-cleavage": 1.12}, {"variant": "G7U A86G", "self-cleavage": 1.64}, {"variant": "A5U G21A", "self-cleavage": 1.25}, {"variant": "A5G U19A", "self-cleavage": 0.53}, {"variant": "A5G U19C", "self-cleavage": 0.96}, {"variant": "G8A A129U", "self-cleavage": 1.63}, {"variant": "C6U A117U", "self-cleavage": 1.1}, {"variant": "A5U A33G", "self-cleavage": 0.69}, {"variant": "A5U A33C", "self-cleavage": 1.62}, {"variant": "C6A A111G", "self-cleavage": 0.08}, {"variant": "A5G A92U", "self-cleavage": 0.95}, {"variant": "U9A A125G", "self-cleavage": 0.76}, {"variant": "A5G A96G", "self-cleavage": 1.21}, {"variant": "C6A A95G", "self-cleavage": 0.79}, {"variant": "A5G U97C", "self-cleavage": 1.25}, {"variant": "A5U A86G", "self-cleavage": 0.92}, {"variant": "C6U A47U", "self-cleavage": 0.51}, {"variant": "C6G U132C", "self-cleavage": 0.79}, {"variant": "C6U U57A", "self-cleavage": 0.77}, {"variant": "C6A A66G", "self-cleavage": 1.23}, {"variant": "U9A A67U", "self-cleavage": 0.67}, {"variant": "A5U U122A", "self-cleavage": 1.48}, {"variant": "G7A U12C", "self-cleavage": 1.33}, {"variant": "A5U U132C", "self-cleavage": 1.4}, {"variant": "A5U U38C", "self-cleavage": 1.27}, {"variant": "C6A A89C", "self-cleavage": 1.1}, {"variant": "G7A U132C", "self-cleavage": 1.2}, {"variant": "A5U A110G", "self-cleavage": 0.29}, {"variant": "C6A U127C", "self-cleavage": 0.49}, {"variant": "U9A A111U", "self-cleavage": 0.19}, {"variant": "C6U U120C", "self-cleavage": 0.33}, {"variant": "A5G C88U", "self-cleavage": 1.02}, {"variant": "G8A U70C", "self-cleavage": 1.22}, {"variant": "A5G G48A", "self-cleavage": 0.77}, {"variant": "A5G U72A", "self-cleavage": 0.43}, {"variant": "A5G U72C", "self-cleavage": 0.41}, {"variant": "G7U A95G", "self-cleavage": 1.43}, {"variant": "A5G U26C", "self-cleavage": 0.6}, {"variant": "A5G U120G", "self-cleavage": 0.39}, {"variant": "A5U U12A", "self-cleavage": 0.69}, {"variant": "U9A A24C", "self-cleavage": 0.99}, {"variant": "U9A A24G", "self-cleavage": 1.29}, {"variant": "U9A A27G", "self-cleavage": 0.47}, {"variant": "G7A A36U", "self-cleavage": 1.54}, {"variant": "A5U A52G", "self-cleavage": 1.18}, {"variant": "A5G U49C", "self-cleavage": 0.97}, {"variant": "G7U A111G", "self-cleavage": 0}, {"variant": "G8C", "self-cleavage": 1.16}, {"variant": "G8U", "self-cleavage": 1.49}, {"variant": "G8A", "self-cleavage": 1.61}, {"variant": "U9A A89U", "self-cleavage": 0.66}, {"variant": "G8A A96G", "self-cleavage": 1.97}, {"variant": "A5G U131C", "self-cleavage": 0.56}, {"variant": "C6A C10U", "self-cleavage": 0.25}, {"variant": "A5G G65A", "self-cleavage": 0.9}, {"variant": "G8U A23G", "self-cleavage": 1.93}, {"variant": "U9A G41A", "self-cleavage": 1.34}, {"variant": "U9A A114G", "self-cleavage": 0.33}, {"variant": "U9A A114U", "self-cleavage": 0.07}, {"variant": "G7A A90G", "self-cleavage": 1.26}, {"variant": "A5G A68G", "self-cleavage": 0.89}, {"variant": "G7A A78G", "self-cleavage": 0.19}, {"variant": "C6U A116G", "self-cleavage": 0.34}, {"variant": "A5G U127A", "self-cleavage": 2.43}, {"variant": "A5G U127C", "self-cleavage": 0.8}, {"variant": "C6A A68G", "self-cleavage": 1.14}, {"variant": "A5U U103C", "self-cleavage": 0.83}, {"variant": "C6U A69G", "self-cleavage": 1.05}, {"variant": "G7A U122C", "self-cleavage": 0.84}, {"variant": "A5G A94G", "self-cleavage": 1}, {"variant": "A5G A94U", "self-cleavage": 0.8}, {"variant": "A5G A90C", "self-cleavage": 1.08}, {"variant": "A5G A90G", "self-cleavage": 1.11}, {"variant": "C6U G79U", "self-cleavage": 0.11}, {"variant": "A5G A66G", "self-cleavage": 0.87}, {"variant": "A5G A135G", "self-cleavage": 2.3}, {"variant": "G8A U49C", "self-cleavage": 2.37}, {"variant": "A5G A67G", "self-cleavage": 0.89}, {"variant": "A5G A67C", "self-cleavage": 0.63}, {"variant": "U9A A22G", "self-cleavage": 1.7}, {"variant": "A5U U37G", "self-cleavage": 1}, {"variant": "A5U U37C", "self-cleavage": 0.72}, {"variant": "G8A A18G", "self-cleavage": 0.78}, {"variant": "G7A G137U", "self-cleavage": 2.13}, {"variant": "U9A A30G", "self-cleavage": 0.98}, {"variant": "C6U A134G", "self-cleavage": 1.38}, {"variant": "G8A U103C", "self-cleavage": 1.61}, {"variant": "G8A U103G", "self-cleavage": 0.03}, {"variant": "G7A A92U", "self-cleavage": 1.72}, {"variant": "G7A A92G", "self-cleavage": 1.8}, {"variant": "G7C U72A", "self-cleavage": 0.38}, {"variant": "A5U A24G", "self-cleavage": 1.12}, {"variant": "G7U A60U", "self-cleavage": 2.4}, {"variant": "C6A U122C", "self-cleavage": 0.29}, {"variant": "A5G A118C", "self-cleavage": 1}, {"variant": "U9A A92G", "self-cleavage": 1.08}, {"variant": "A5U U70A", "self-cleavage": 1.23}, {"variant": "G7U A59G", "self-cleavage": 0.98}, {"variant": "A5U A78G", "self-cleavage": 0.44}, {"variant": "A5G U124A", "self-cleavage": 0.54}, {"variant": "A5G U124C", "self-cleavage": 0.58}, {"variant": "A5U A82U", "self-cleavage": 0.38}, {"variant": "G7U A90G", "self-cleavage": 2.21}, {"variant": "A5G A111G", "self-cleavage": 0.08}, {"variant": "G7A A116U", "self-cleavage": 0.33}, {"variant": "C6U A66G", "self-cleavage": 1.33}, {"variant": "U9A A33G", "self-cleavage": 0.9}, {"variant": "G7A A117G", "self-cleavage": 0.51}, {"variant": "A5U A30U", "self-cleavage": 1.11}, {"variant": "A5G A116U", "self-cleavage": 0.25}, {"variant": "U9A A110G", "self-cleavage": 0.22}, {"variant": "C6A A110G", "self-cleavage": 0.08}, {"variant": "G8A A22G", "self-cleavage": 1.39}, {"variant": "A5U U108C", "self-cleavage": 0.04}, {"variant": "A5G G21A", "self-cleavage": 1.23}, {"variant": "G7U U131C", "self-cleavage": 1.14}, {"variant": "G7U U108C", "self-cleavage": 0.02}, {"variant": "G7U U108A", "self-cleavage": 0.06}, {"variant": "C6A", "self-cleavage": 1.28}, {"variant": "C6G", "self-cleavage": 1.83}, {"variant": "C6U", "self-cleavage": 0.75}, {"variant": "G7A A52G", "self-cleavage": 1.25}, {"variant": "C6U A56G", "self-cleavage": 0.64}, {"variant": "A5G A36U", "self-cleavage": 1.13}, {"variant": "G8A A117G", "self-cleavage": 2.27}, {"variant": "G7A U19C", "self-cleavage": 1.14}, {"variant": "U9A A11G", "self-cleavage": 0.92}, {"variant": "G7U U12C", "self-cleavage": 0.79}, {"variant": "C6U U43C", "self-cleavage": 1.58}, {"variant": "G7A A56G", "self-cleavage": 1.78}, {"variant": "A5U A55U", "self-cleavage": 1.15}, {"variant": "A5U A89G", "self-cleavage": 1.15}, {"variant": "A5G G73A", "self-cleavage": 0.21}, {"variant": "G7U A67G", "self-cleavage": 1.28}, {"variant": "A5U A116U", "self-cleavage": 0.35}, {"variant": "U9A A140U", "self-cleavage": 1.31}, {"variant": "G7A U37C", "self-cleavage": 2.58}, {"variant": "A5U A140G", "self-cleavage": 1.09}, {"variant": "C6A A117G", "self-cleavage": 0.6}, {"variant": "A5U G15A", "self-cleavage": 1.04}, {"variant": "U9A A69G", "self-cleavage": 1.27}, {"variant": "U9A G58U", "self-cleavage": 0.65}, {"variant": "A5G A126G", "self-cleavage": 0.69}, {"variant": "C6U C46U", "self-cleavage": 1.03}, {"variant": "C6U U19G", "self-cleavage": 0.77}, {"variant": "G8A C77U", "self-cleavage": 1.72}, {"variant": "A5U A69G", "self-cleavage": 0.36}, {"variant": "A5G C128G", "self-cleavage": 0.8}, {"variant": "G7U U70A", "self-cleavage": 1.27}]}]}
